# Data published in US20200239575A1 (UNIVERSITY OF UTAH RESEARCH FOUNDATION, published 2020).
# T1: programmed death-1 receptor (PD-1), mouse, on cells (mouse, UniProt Q02242 25-288)
# T1 construct: whole, on cells; also called surface PD-1; PD-1^+ cells (EL4)
# T1 sequence (looked up): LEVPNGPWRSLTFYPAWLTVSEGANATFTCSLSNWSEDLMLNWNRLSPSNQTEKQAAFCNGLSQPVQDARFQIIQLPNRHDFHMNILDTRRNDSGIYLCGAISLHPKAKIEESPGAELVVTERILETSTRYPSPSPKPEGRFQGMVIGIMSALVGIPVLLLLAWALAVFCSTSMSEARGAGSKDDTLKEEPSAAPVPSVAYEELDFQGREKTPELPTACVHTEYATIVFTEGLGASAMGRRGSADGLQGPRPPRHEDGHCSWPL
# Assays:
# [1] = target: T1, programmed death-1 receptor (PD-1), …; assay: flow cytometry dose-response on 1 million EL4 cells, 4 °C 30 min, Alexa Fluor 647-labelled; EC50 of the PD-1^+ fraction taken as Kd (FIG. 10d)
# [2] = target: T1, programmed death-1 receptor (PD-1), …; assay: flow cytometry, EL4 cells, competitor PD-L1-Fc 500 nM, 4 °C (FIG. 8g)
# [3] = target: T1, programmed death-1 receptor (PD-1), …; assay: flow cytometry, 4 °C 30 min, primary T cells (FIG. 8c)
# [4] = target: T1, programmed death-1 receptor (PD-1), …; assay: flow cytometry, 37 °C 30 min, primary B cells (FIG. 8f)
# [5] = target: T1, programmed death-1 receptor (PD-1), …; assay: flow cytometry, 4 °C 30 min, EL4 against B16 cells (FIG. 10c)
# [6] = target: T1, programmed death-1 receptor (PD-1), …; assay: flow cytometry, 37 °C 30 min, primary T cells (FIG. 8e)
# [7] = target: T1, programmed death-1 receptor (PD-1), …; assay: flow cytometry, 37 °C 30 min, EL4 against B16 cells (FIG. 10e)
# [8] = target: T1, programmed death-1 receptor (PD-1), …; assay: flow cytometry, 4 °C 30 min, primary B cells (FIG. 8d)
# [9] = target: T1, programmed death-1 receptor (PD-1), …; assay: flow cytometry, binding and uptake by EL4 against B16 cells (FIG. 4B)
# [10] = target: T1, programmed death-1 receptor (PD-1), …; assay: cell-based or functional assay
# [11] = target: T1, programmed death-1 receptor (PD-1), …; assay: flow cytometry, EL4 cells, competitor PD-L1-Fc 500 nM, 37 °C (FIG. 8g)
# mouse serum albumin = target: T2, mouse serum albumin (mouse, UniProt P07724 25-608); assay: native PAGE of a 1-to-1 mixture (FIG. 14a)
# T2 construct: also called MSA; mouse albumin
# human serum albumin = target: T3, human serum albumin (human, UniProt P02768 25-609); assay: native PAGE of a 1-to-1 mixture (FIG. 14b)
# T3 construct: also called HSA
# [12] = target: T1, programmed death-1 receptor (PD-1), …; assay: flow cytometry, Alexa Fluor 647-labelled ABD-PE, 4 °C 30 min, primary T cells, primary B cells, EL4 and B16 cells
binder,measurement,setting,value
"αPD-1-ABD-PE (other, Alexa Fluor 647 NHS ester label in the flow cytometry assays (sites not given), Order NH2-HisTag-GGGGS-VH-(GGGGS)3-VL-(GGGGS)3-ABD-(GGGGS)3-PE; made in E. coli Shuffle T7; theoretical molecular weight 57.9 kDa; also called the immunotoxin; the toxin) HHHHHHGGGGSEVQLQESGPGLVKPSQSLSLTCSVTGYSITSSYRWNWIRKFPGNCLEWMGYINSAGISNYNPSLKRRISITRDTSKNQFFLQVNSVTTEDAATYYCARSDNMGTTPFTYWGQGTLVTVSSGGGGSGGGGSGGGGSDIVMTQGTLPNPVPSGESVSITCRSSKSLLYSDGKTYLNWYLQRPGQSPQLLIYWMSTRASGVSDRFSGSGSGTDFTLKISGVEAEDVGIYYCQQGLEFPTFGCGTKLELKGGGGSGGGGSGGGGSLAEAKVLANRELDKYGVSDFYKRLINKAKTVEGVEALKLHILAALPGGGGSGGGGSGGGGSRHRQPRGWEQLPTGAEFLGDGGDVSFSTRGTQNWTVERLLQAHRQLEERGYVFVGYHGTFLEAAQSIVFGGVRARSQDLDAIWRGFYIAGDPALAYGYAQDQEPDARGRIRNGALLRVYVPRSSLPGFYRTSLTLAAPEAAGEVERLIGHPLPLRLDAITGPEEEGGRLETILGWPLAERTVVIPSAIPTDPRNVGGDLDPSSIPDKEQAISALPDYASQPGKPPREDLK",Kd,[1],12 nM
same,fold decrease of MFI with PD-L1-Fc against αPD-1-ABD-PE alone,[2],~8 fold
same,"fold MFI, PD-1^+ over PD-1^- primary T cells",[3],> 4 fold
same,"fold MFI (binding and uptake), PD-1^+ over PD-1^- primary B cells",[4],> 7 fold
same,"fold MFI, EL4 over B16 cells",[5],> 3 fold
same,"fold MFI (binding and uptake), PD-1^+ over PD-1^- primary T cells",[6],> 8 fold
same,"fold MFI (binding and uptake), EL4 over B16 cells",[7],~12 fold
same,"fold MFI, PD-1^+ over PD-1^- primary B cells",[8],> 5 fold
same,"fold binding and uptake, EL4 over B16 cells",[9],11.7 fold
same,IC50 of cytotoxicity to EL4 cells (FIG. 2C),[10],1.1 nM
same,"IC50 of cytotoxicity to PD-1^+ primary B cells (72 h, live cell count by flow cytometry)",[10],0.47 nM
same,"IC50 of cytotoxicity to PD-1^+ primary T cells (72 h, live cell count by flow cytometry)",[10],0.43 nM
same,"IC50 of cytotoxicity to wildtype EL4 cells (MTS assay, 72 h)",[10],0.64 nM
same,"fold toxicity, wildtype EL4 cells against PD-1 knockout EL4 cells",[10],> 1000 fold
same,fold decrease of MFI with PD-L1-Fc against αPD-1-ABD-PE alone,[11],~25 fold
"αPD-1 (full IgG) (antibody, V domains shown, Rat anti-mouse PD-1 mAb, IgG2a, κ; also called intact αPD-1; αPD-1 IgG) VH: EVQLQESGPGLVKPSQSLSLTCSVTGYSITSSYRWNWIRKFPGNRLEWMGYINSAGISNYNPSLKRRISITRDTSKNQFFLQVNSVTTEDAATYYCARSDNMGTTPFTYWGQGTLVTVSS VL: DIVMTQGTLPNPVPSGESVSITCRSSKSLLYSDGKTYLNWYLQRPGQSPQLLIYWMSTRASGVSDRFSGSGSGTDFTLKISGVEAEDVGIYYCQQGLEFPTFGGGTKLELK",Kd,[1],3.4 nM
"αPD-1-PE (other, Control protein without the ABD) HHHHHHGGGGSEVQLQESGPGLVKPSQSLSLTCSVTGYSITSSYRWNWIRKFPGNCLEWMGYINSAGISNYNPSLKRRISITRDTSKNQFFLQVNSVTTEDAATYYCARSDNMGTTPFTYWGQGTLVTVSSGGGGSGGGGSGGGGSDIVMTQGTLPNPVPSGESVSITCRSSKSLLYSDGKTYLNWYLQRPGQSPQLLIYWMSTRASGVSDRFSGSGSGTDFTLKISGVEAEDVGIYYCQQGLEFPTFGCGTKLELKGGGGSGGGGSGGGGSRHRQPRGWEQLPTGAEFLGDGGDVSFSTRGTQNWTVERLLQAHRQLEERGYVFVGYHGTFLEAAQSIVFGGVRARSQDLDAIWRGFYIAGDPALAYGYAQDQEPDARGRIRNGALLRVYVPRSSLPGFYRTSLTLAAPEAAGEVERLIGHPLPLRLDAITGPEEEGGRLETILGWPLAERTVVIPSAIPTDPRNVGGDLDPSSIPDKEQAISALPDYASQPGKPPREDLK",binding result,mouse serum albumin,no binding
same,binding result,human serum albumin,no binding
"ABD-PE (other, Alexa Fluor 647 NHS ester label in the flow cytometry assays (sites not given), Untargeted control protein without the αPD-1 scFv; also called labeled ABD-PE) HHHHHHGGGGSLAEAKVLANRELDKYGVSDFYKRLINKAKTVEGVEALKLHILAALPGGGGSGGGGSGGGGSRHRQPRGWEQLPTGAEFLGDGGDVSFSTRGTQNWTVERLLQAHRQLEERGYVFVGYHGTFLEAAQSIVFGGVRARSQDLDAIWRGFYIAGDPALAYGYAQDQEPDARGRIRNGALLRVYVPRSSLPGFYRTSLTLAAPEAAGEVERLIGHPLPLRLDAITGPEEEGGRLETILGWPLAERTVVIPSAIPTDPRNVGGDLDPSSIPDKEQAISALPDYASQPGKPPREDLK",binding result,[12],no binding (tested: 100 nM)
